Here are results for 16 molecules from patent US20220064312A1.

Positions count from the first letter of the chain named. In names and notes the source's numbering stands. Where only a bound is given, the exact number is not on record here.

B1: h10A11 IGKV4-1/IGHV3-73 V63L (antibody, name in Kabat numbering, V domains shown)
VH: EVQLVESGGGLVQPGGSLKLSCAASGFAFNTYALYWVRQASGKGLEWVGRIRSKSNNYATYYADSLKDRFTISRDDSKNTAYLQMNSLKTEDTAVYYCTRARFYYSDYGYAMDYWGQGTLVTVSS
VL: DIVMTQSPDSLAVSLGERATINCRSSKSLLHSNGNTYLYWYQQKPGQPPKLLIYRMSNLASGVPDRFSGSGSGTDFTLTISSLQAEDVAVYYCMQHLEYPLTFGQGTKLEIKR
B2: h10A11 IGKV4-1/IGHV3-73 D101E (antibody, name in Kabat numbering, V domains shown)
VH: B1 VH with L66V, D113E
VL: B1 VL
B3: h10A11 IGKV4-1/IGHV3-73 D100aE (antibody, name in Kabat numbering, V domains shown)
VH: B1 VH with L66V, D107E
VL: B1 VL
B4: h10A11 IGKV4-1/IGHV3-73 Y98F (antibody, name in Kabat numbering, V domains shown)
VH: B1 VH with L66V, Y104F
VL: B1 VL
B5: h10A11 IGKV4-1/IGHV3-73 G100cA (antibody, name in Kabat numbering, V domains shown)
VH: B1 VH with L66V, G109A
VL: B1 VL
B6: h10A11 IGKV4-1/IGHV3-73 Y99F (antibody, name in Kabat numbering, V domains shown)
VH: B1 VH with L66V, Y105F
VL: B1 VL
B7: h10A11 IGKV4-1/IGHV3-73 K64R (antibody, name in Kabat numbering, V domains shown)
VH: B1 VH with L66V, K67R
VL: B1 VL
B8: h10A11 IGKV4-1/IGHV3-73 R96K (antibody, name in Kabat numbering, V domains shown)
VH: B1 VH with L66V, R102K
VL: B1 VL
B9: h10A11 IGKV4-1/IGHV3-73 S100T (antibody, name in Kabat numbering, V domains shown)
VH: B1 VH with L66V, S106T
VL: B1 VL
B10: h10A11 IGKV4-1/IGHV3-73 Y100bF (antibody, name in Kabat numbering, V domains shown)
VH: B1 VH with L66V, Y108F
VL: B1 VL
B11: h10A11 IGKV4-1/IGHV3-73 F97L (antibody, name in Kabat numbering, V domains shown)
VH: B1 VH with L66V, F103L
VL: B1 VL
B12: h10A11 IGKV4-1/IGHV3-73 M100fL (antibody, name in Kabat numbering, V domains shown)
VH: B1 VH with L66V, M112L
VL: B1 VL
B13: h10A11 IGKV4-1/IGHV3-73 Y100dF (antibody, name in Kabat numbering, V domains shown)
VH: B1 VH with L66V, Y110F
VL: B1 VL
B14: h10A11 IGKV4-1/IGHV3-73 A100eV (antibody, name in Kabat numbering, V domains shown)
VH: B1 VH with L66V, A111V
VL: B1 VL
B15: h10A11 IGKV4-1/IGHV3-73 Y102F (antibody, name in Kabat numbering, V domains shown)
VH: B1 VH with L66V, Y114F
VL: B1 VL
B16: h10A11 IGKV4-1/IGHV3-73 D65E (antibody, name in Kabat numbering, V domains shown)
VH: B1 VH with L66V, D68E
VL: B1 VL

human CCR8 (human), sequence (P51685 whole entry): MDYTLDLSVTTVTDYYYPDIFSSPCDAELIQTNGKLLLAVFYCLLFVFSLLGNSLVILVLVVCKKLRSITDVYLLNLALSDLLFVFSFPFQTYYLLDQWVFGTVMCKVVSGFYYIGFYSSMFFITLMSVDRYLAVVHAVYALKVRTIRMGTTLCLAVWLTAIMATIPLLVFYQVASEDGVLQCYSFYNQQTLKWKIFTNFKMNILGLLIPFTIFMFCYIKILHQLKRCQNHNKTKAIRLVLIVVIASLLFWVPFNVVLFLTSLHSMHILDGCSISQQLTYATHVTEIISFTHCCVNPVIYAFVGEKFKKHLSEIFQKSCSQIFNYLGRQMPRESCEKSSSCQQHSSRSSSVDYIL

The experiment concerns the target human CCR8 (human) (UniProt P51685). Nature of the experiment: cell-based or functional assay.
As for B1, the IC50 ratio (WT IC50/mutant IC50) was 0.56.

Molecule B2 came in with an IC50 (n.d.: 10 nM or more) above 0.01 µM.

On to B3, for which the IC50 ratio (WT IC50/mutant IC50) is 0.3.

For B4, the IC50 ratio (WT IC50/mutant IC50) is 0.07.

Turning to B5, the IC50 ratio (WT IC50/mutant IC50) turned out to be 0.07.

Take B6: the IC50 ratio (WT IC50/mutant IC50) was 0.8.

As to B7, the IC50 ratio (WT IC50/mutant IC50) came to 0.54.

With B8, the IC50 (n.d.: 10 nM or more) is above 0.01 µM.

With B9, the IC50 ratio (WT IC50/mutant IC50) amounted to 0.64.

B10: the IC50 ratio (WT IC50/mutant IC50) was 0.75.

Take B11: the IC50 (n.d.: 10 nM or more) is above 0.01 µM.

B12: the IC50 ratio (WT IC50/mutant IC50) amounted to 0.72.

Regarding B13, the IC50 ratio (WT IC50/mutant IC50) came out at 0.55.

As to B14, the IC50 ratio (WT IC50/mutant IC50) turned out to be 0.49.

As for B15, the IC50 ratio (WT IC50/mutant IC50) turned out to be 0.99.

For the molecule B16, the IC50 ratio (WT IC50/mutant IC50) came to 1.3.
